{"source": "patent US20190225670A1", "about": "“COMPOUNDS AND METHODS FOR ACTIVATING TIE2 SIGNALING” (ASCLEPIX THERAPEUTICS, LLC, priority 2016, published 2019)", "key": {"α5 integrin subunit": {"molecular_target": "T1, α5 integrin subunit (Homo sapiens, UniProt P08648)", "T1 construct": "host or cells: human dermal microvascular endothelial cells (MEC)", "T1 sequence (P08648 42-894 limits assumed)": "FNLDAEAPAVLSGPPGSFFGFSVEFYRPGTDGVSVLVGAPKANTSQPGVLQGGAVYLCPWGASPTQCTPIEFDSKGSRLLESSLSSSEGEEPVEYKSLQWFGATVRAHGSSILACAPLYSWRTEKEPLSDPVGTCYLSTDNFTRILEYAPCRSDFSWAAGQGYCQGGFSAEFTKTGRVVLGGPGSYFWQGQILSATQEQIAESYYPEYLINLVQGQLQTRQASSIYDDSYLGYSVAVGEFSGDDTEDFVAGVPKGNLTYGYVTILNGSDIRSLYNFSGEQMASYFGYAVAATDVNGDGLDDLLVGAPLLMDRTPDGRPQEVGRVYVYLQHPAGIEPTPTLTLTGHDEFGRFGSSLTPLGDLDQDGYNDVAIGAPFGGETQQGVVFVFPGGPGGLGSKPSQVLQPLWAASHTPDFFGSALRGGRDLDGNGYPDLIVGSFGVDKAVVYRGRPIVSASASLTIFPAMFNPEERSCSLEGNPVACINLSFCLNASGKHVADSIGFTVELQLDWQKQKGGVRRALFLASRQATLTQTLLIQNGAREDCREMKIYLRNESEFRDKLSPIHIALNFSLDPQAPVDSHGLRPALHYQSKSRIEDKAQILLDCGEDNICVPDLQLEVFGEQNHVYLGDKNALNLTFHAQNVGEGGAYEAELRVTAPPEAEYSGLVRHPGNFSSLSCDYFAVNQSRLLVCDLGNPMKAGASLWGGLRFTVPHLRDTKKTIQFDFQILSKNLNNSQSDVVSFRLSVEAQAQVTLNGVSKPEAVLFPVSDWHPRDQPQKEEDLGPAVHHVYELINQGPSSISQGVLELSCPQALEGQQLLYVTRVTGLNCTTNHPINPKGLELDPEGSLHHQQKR", "T1 sequence (P08648 895-1049 limits assumed)": "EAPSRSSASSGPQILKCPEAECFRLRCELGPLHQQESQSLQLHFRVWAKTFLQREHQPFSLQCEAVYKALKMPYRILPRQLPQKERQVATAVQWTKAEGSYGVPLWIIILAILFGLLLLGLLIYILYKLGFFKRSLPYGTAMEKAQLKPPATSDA", "test": "Triton X-100 fractionation of MEC lysates, α5 integrin", "type": "cell-based", "protocol": "α5β1-integrin heterodimer and αvβ3-integrin heterodimer are primary targets of AXT107.\nThe isolation of Triton X-100 soluble and insoluble fractions was performed using modifications to previously-described procedures (see, e.g., Lampugnani et al., J Cell Biol. 1995; 129(1):203-217). FN1-coated six-well plates were seeded with 2.5×10^6 cells and cultured for forty-eight hours, as described above. The cultures were then serum starved for ninety minutes in EBM-2 media, treated with 100 μM AXT107 or DMSO vehicle, and fifteen minutes with 1 mM sodium vanadate. […] The plates were then transferred to ice and washed twice with cold dPBS containing Ca^2+ and Mg^2+ and twice with EBM-2 media. The media was then removed and the cells incubated for thirty minutes on ice, at 4° C. in 200 μl of Triton X-100 extraction buffer (10 mM Tris-HCl, pH 7.5; 150 mM NaCl; 2 mM CaCl2); 1% NP-40; 1% […]; and a protease inhibitor cocktail (Cell Signaling, Cat#: 5871)) with occasional agitation. The extraction buffer was gently collected and centrifuged at 12,000×g for five minutes. The supernatant was then mixed with 125 μl of 3×Blue Loading Dye, boiled, and saved as the Triton X-100 soluble fraction at −20° C. […] Samples were analyzed by western blot as described above. […]"}, "β1 integrin subunit": {"molecular_target": "T2, β1 integrin subunit (Homo sapiens, UniProt P05556)", "T2 construct": "host or cells: human dermal microvascular endothelial cells (MEC)", "T2 sequence (P05556 21-798)": "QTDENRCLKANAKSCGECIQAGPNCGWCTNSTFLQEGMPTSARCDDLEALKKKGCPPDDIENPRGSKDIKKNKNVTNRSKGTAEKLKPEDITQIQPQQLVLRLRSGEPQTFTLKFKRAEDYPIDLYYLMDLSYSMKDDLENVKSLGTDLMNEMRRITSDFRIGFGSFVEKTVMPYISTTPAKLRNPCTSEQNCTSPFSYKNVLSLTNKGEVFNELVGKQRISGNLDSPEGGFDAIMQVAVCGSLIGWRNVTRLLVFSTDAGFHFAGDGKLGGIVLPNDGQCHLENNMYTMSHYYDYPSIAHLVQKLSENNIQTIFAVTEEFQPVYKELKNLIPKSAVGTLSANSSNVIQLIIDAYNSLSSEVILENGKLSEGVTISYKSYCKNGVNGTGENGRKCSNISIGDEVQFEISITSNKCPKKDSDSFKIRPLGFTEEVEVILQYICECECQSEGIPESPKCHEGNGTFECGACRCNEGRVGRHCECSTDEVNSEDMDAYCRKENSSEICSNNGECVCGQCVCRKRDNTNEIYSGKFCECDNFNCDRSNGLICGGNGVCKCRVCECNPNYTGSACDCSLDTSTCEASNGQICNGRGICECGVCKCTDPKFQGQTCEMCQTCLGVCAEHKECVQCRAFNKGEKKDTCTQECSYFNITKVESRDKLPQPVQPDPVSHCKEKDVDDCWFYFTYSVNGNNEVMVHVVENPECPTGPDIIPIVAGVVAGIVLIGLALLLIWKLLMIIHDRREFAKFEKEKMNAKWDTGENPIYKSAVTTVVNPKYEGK", "test": "Triton X-100 fractionation of MEC lysates, β1 integrin", "type": "cell-based", "text": "Since β1 integrin is the only known β subunit to heterodimerize with the α5 integrin subunit, it unlikely that the as subunit, that was observed here in the insoluble fractions, originated from a heterodimeric integrin pair other than α5β1. Unfortunately, high background impaired the visualization of α5 integrin alone by immunofluorescence. Given the unexpected discovery that AXT107 dissociates the integrin heterodimer, this discovery was confirmed in several independent assays. […] Thus, interactions between Tie2 and heterodimerized α5β1 integrin appear to retain Tie2 at the EC-ECM interface.\nThe isolation of Triton X-100 soluble and insoluble fractions was performed using modifications to previously-described procedures (see, e.g., Lampugnani et al., J Cell Biol. 1995; 129(1):203-217). FN1-coated six-well plates were seeded with 2.5×10^6 cells and cultured for forty-eight hours, as described above. The cultures were then serum starved for ninety minutes in EBM-2 media, treated with 100 μM AXT107 or DMSO vehicle, and fifteen minutes with 1 mM sodium vanadate. The cells were then stimulated with either 100 ng/ml VEGFA, 400 ng/ml Ang2, or PBS for fifteen minutes. The plates were then transferred to ice and washed twice with cold dPBS containing Ca^2+ and Mg^2+ and twice with EBM-2 media. […] Samples were analyzed by western blot as described above. […]"}, "[1]": {"test": "Self-assembly of peptide in media", "type": "physicochemical", "details": "cell culture media"}, "Tie2": {"tested_on": "Tie2", "test": "Retinopathy of prematurity (ROP) mouse model, Tie2 activation", "type": "in vivo", "details": "no data given", "text": "To investigate the effects of AXT107 on Tie2 activation in vivo, retinopathy of prematurity (ROP) mouse model was used. In this system, P7 pups are placed in 75% 02 for five days, resulting in a loss of retinal capillary density from hyperoxia and a rapid induction of neovascularization upon the pup's return to normoxic conditions. […] Increased levels of Ang2 in the vitreous contribute to vessel leakage and macular edema in various retinopathies."}}}
{"sequence": "LRRFSTAPFAFIDINDVINF [AXT107]", "values": [{"measurement": "α5 integrin subunit location in fractionated lysates", "setting": "α5 integrin subunit; 100 μM AXT107", "value": "relocated to the insoluble fraction"}, {"measurement": "α5 integrin after immunoprecipitation of Tie2", "setting": "α5 integrin subunit; Triton X-100 fractionated lysates, with 200 ng/ml Ang2 or no growth factor", "value": "observed in the peptide-treated, insoluble fraction"}, {"measurement": "β1 integrin subunit in insoluble fraction", "setting": "β1 integrin subunit; 100 μM AXT107, long exposure times, high antibody concentrations", "value": "never observed in the insoluble fraction"}, {"measurement": "interactions of immunoprecipitated α5 integrin with β1", "setting": "β1 integrin subunit; Triton X-100 fractionated lysates after AXT107 treatment, data not shown", "value": "only found in the soluble fractions"}, {"measurement": "self-assembly when added to media", "setting": "[1]", "value": "self-assemble into peptide complexes"}, {"measurement": "activation of Tie2 by Ang2 in vivo", "setting": "Tie2", "value": "potentiates the activation of Tie2 by Ang2"}]}
